{"source": "paper PMC4201484", "key": {"β-TrCP1": {"molecular_target": "β-TrCP1 (UniProt Q9Y297)", "assay": "co-IP, anti-HA IP, anti-Flag blot", "details": "reference: wild type; sites S525"}, "β-TrCP2": {"molecular_target": "β-TrCP2 (UniProt Q9UKB1)", "assay": "co-IP, anti-HA IP, anti-Flag blot", "details": "reference: wild type; sites S525"}}}
{"substance": "Rap1GAP (from UniProt P47736) S525A", "values": [{"measurement": "binding against the reference", "setting": "β-TrCP1", "value": "weaker"}, {"measurement": "binding against the reference", "setting": "β-TrCP2", "value": "weaker"}]}
